Target: the molecule itself
Experiment: SEC

B1: DY-647P1-labeled recombinant human Bax single cysteine mutant (S4C, C62S, C126S) (natural protein)
chain: MDGCGEQPRGGGPTSSEQIMKTGALLLQGFIQDRAGRMGGEAPELALDPVPQDASTKKLSESLKRIGDELDSNMELQRMIAAVDTDSPREVFFRVAADMFSDGNFNWGRVVALFYFASKLVLKALSTKVPELIRTIMGWTLDFLRERLLGWIQDQGGWDGLLSYFGTPTWQTVTIFVAGVLTASLTIWKKMG
modifications: cysteine labeling with DY-647P1 (single cysteine mutant; degree of labeling ~74 %)
B1: binds.

Reference: doi:10.1101/2025.11.14.688508 (bioRxiv, 2025)
